What all share (experiment): SPR (Biacore), antibody captured on chip, FcgR extracellular domain as analyte
Assay [1] addresses T1, FcgRIIIa V (human, UniProt P08637 17-208).
T1 construct: extracellular domain; also called FcγRIIIa V; not shown: His tag attached to the C terminus
How it is done:
(§1) Specifically, H240-Kn120 (SEQ ID NO: 99) resulting from introduction of S239M into H240-Kn067 and H240-Kn126 (SEQ ID NO: 100) resulting from introduction of Y235Q into H240-Kn120 were prepared according to the method described in Reference Example 1. […] Those described above were assayed for the binding to each FcgR according to the method described in Reference Example 8.
(§2) Analysis of interaction between obj ective antibody and the FcγR was carried out using Biacore T100 (GE Healthcare), Biacore T200, Biacore A100, and Biacore 4000. HBS-EP+ (GE Healthcare) was used as the running buffer, and the measurement temperature was set to 25° C. Chips produced by immobilizing the antigen peptide by the amine coupling method to a Series S sensor Chip CM5 (GE Healthcare), chips produced by allowing preliminarily biotinylated antigen peptides to interact with and immobilize onto a Series S Sensor Chip SA (certified) (GE Healthcare), chips produced by immobilizing Protein L (ACTIGEN, BioVision) to Series S Sencor Chip CM5 (GE Healthcare), or chips produced by immobilizing Protein A/G (Thermo Scientific) to Series S Sencor Chip CM5 (GE Healthcare) were used. Antibodies of interest were captured onto these chips, and allowed to interact to each FcγR diluted with running buffer. To regenerate and repeatedly use the chip, the antibodies captured onto the chip were washed off by reacting 10 mM glycine-HCl, pH 1.5.

The target of assay [2] is T2, FcgRIa (human, UniProt P12314 16-292).
T2 construct: extracellular domain; Expressed in FreeStyle293 cells and purified; used as analyte in Biacore; also called FcγRIa; FcγRI; not shown: His tag attached to the C terminus
How it is done: as §1, §2

Assay [3] concerns the target T3, FcgRIIIa F (human, UniProt P08637 17-208).
T3 construct: extracellular domain; also called FcγRIIIa F; not shown: His tag attached to the C terminus
How it is done: as §1, §2

The target in assay [4] is T4, FcgRIIb (human, UniProt P31994 43-217).
T4 construct: extracellular domain; Expressed in FreeStyle293 cells and purified; used as analyte in Biacore; also called FcγRIIb; CD32B; not shown: His tag attached to the C terminus
T4 sequence (looked up): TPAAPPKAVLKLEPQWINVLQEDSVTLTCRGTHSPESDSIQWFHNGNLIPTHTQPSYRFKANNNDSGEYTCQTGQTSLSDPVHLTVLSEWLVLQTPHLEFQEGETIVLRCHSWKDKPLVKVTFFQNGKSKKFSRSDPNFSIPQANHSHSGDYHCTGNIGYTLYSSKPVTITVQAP
How it is done: as §1, §2

For assay [5], the target named is T5, FcgRIIa H (human, UniProt P12318 34-217).
T5 construct: extracellular domain; also called FcγRIIa H; FcγRIIa type H; not shown: His tag attached to the C terminus
T5 sequence (looked up): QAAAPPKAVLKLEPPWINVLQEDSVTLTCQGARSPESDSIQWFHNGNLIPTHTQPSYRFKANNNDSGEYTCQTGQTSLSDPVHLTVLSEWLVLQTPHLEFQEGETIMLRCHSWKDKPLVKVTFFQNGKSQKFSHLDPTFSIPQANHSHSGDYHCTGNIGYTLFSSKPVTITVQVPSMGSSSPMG
How it is done:
as §1, §2

For assay [6], the target named is T6, FcgRIIa R (human, UniProt P12318 34-217).
T6 construct: extracellular domain; also called FcγRIIa R; FcγRIIa type R; not shown: His tag attached to the C terminus
T6 sequence (looked up): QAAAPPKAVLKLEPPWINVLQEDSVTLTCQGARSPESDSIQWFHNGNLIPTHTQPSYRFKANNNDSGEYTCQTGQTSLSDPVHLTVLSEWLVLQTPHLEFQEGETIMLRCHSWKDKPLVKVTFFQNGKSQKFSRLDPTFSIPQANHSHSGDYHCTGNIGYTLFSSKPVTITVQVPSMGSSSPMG
On the procedure:
as §1, §2

Assay [7] addresses T1, FcgRIIIa V. On the procedure:
(§3) H240-Kn113 (SEQ ID NO: 92) resulting from introduction of Y234E and Y235N into H240-Kn072, H240-Kn115 (SEQ ID NO: 93) resulting from introduction of S239M into H240-Kn072, and H240-Kn125 (SEQ ID NO: 94) resulting from introduction of Y235Q and S239M into H240-Kn072 were prepared according to the method described in Reference Example 1.
as §2
This is another data set of the same source.

Assay [8] has as its target T2, FcgRIa. How it is done:
as §3, §2
The source holds these as a separate data set.

Assay [9] has as its target T3, FcgRIIIa F. How it is done: as §3, §2
This is another data set of the same source.

Assay [10] addresses T4, FcgRIIb. How it is done: as §3, §2
This is another data set of the same source.

The target in assay [11] is T5, FcgRIIa H. How it is done:
as §3, §2
The source holds these as a separate data set.

The target in assay [12] is T6, FcgRIIa R. How it is done: as §3, §2
This is another data set of the same source.

In assay [13] the target is T1, FcgRIIIa V. The source holds these as a separate data set.
Assay [14] concerns the target T2, FcgRIa. The source holds these as a separate data set.
The target in assay [15] is T3, FcgRIIIa F. This is another data set of the same source.
Assay [16] concerns the target T4, FcgRIIb. The source holds these as a separate data set.
Assay [17] has as its target T5, FcgRIIa H. The source holds these as a separate data set.
For assay [18], the target named is T6, FcgRIIa R. The source holds these as a separate data set.

Read-outs that look alike come from different tables or passages of the source.

T2 sequence (P12314 16-292): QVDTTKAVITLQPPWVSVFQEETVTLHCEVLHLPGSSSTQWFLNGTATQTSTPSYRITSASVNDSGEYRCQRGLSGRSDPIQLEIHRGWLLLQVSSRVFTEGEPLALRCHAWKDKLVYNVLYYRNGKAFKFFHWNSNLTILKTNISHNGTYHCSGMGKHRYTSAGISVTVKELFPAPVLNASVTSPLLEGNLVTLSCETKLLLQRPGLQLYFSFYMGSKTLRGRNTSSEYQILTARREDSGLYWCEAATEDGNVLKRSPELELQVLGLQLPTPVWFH
T3 sequence (P08637 17-208): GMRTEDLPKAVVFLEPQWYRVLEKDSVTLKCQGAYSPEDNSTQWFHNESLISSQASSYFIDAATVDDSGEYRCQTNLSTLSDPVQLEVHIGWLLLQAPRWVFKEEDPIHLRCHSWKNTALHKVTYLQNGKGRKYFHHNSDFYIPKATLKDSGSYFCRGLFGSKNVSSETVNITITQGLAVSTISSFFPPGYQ
T1 sequence (P08637 17-208 F176V limits assumed): as the sequence (P08637 17-208) above, with F160V counted along it

B1: H240-Kn033/H240-Hl033/L73-k0 (antibody, human IgG1, kappa)
heavy 1: not shown
heavy 2: not shown
light: DIQMTQSPSSLSASVGDRVTITCRASQDIHKYIAWYQQKPGQAPRLLIQYTSTLQPGVPSRFSGSGSGTDYTFTISSLQPEDIATYYCLQYEQLRTFGGGTKVEIKRTVAAPSVFIFPPSDEQLKSGTASVVCLLNNFYPREAKVQWKVDNALQSGNSQESVTEQDSKDSTYSLSSTLTLSKADYEKHKVYACEVTHQGLSSPVTKSFNRGEC
notes: Anti-epiregulin (EREG) IgG1 control with knobs-into-holes alterations only (Y349C/T366W in the knob chain; D356C/T366S/L368A/Y407V in the hole chain); also called H240-Kn033/H240-HI033/L73-k0
On to B1, for which the Kd (in general, a measure of binding affinity in units of concentration) was found to be 0.39 µM in assay [1]; 0.00025 µM in [2]; 2.6 µM in [3]; 4.2 µM in assay [4]; 0.93 µM in assay [5]; 1 µM in [6]. The Kd turned out to be 0.39 µM in assay [7]; 0.00025 µM in [8]; 2.6 µM in [9]; 4.2 µM in assay [10]; 0.93 µM in assay [11]; 1 µM in assay [12]. The Kd in [13] came out at 0.39 µM; in assay [14], 0.00025 µM; in assay [15] it was 2.6 µM; in [16], 4.2 µM; in assay [17] it was 0.93 µM; in assay [18] it was 1 µM.

B2: H240-Kn072/H240-Hl076/L73-k0 (antibody, human IgG1, kappa)
heavy 1: QDQLVQSGAEVKKPGASVKVSCKASGFNIKDTYIQWVRQAPGQGLEWMGRIDPLRKQTKYREKFEGRVTITADTSTNTAYMELSSLRSEDTAVYYCVRSGREFDYWGQGTLVTVSSASTKGPSVFPLAPSSKSTSGGTAALGCLVKDYFPEPVTVSWNSGALTSGVHTFPAVLQSSGLYSLSSVVTVPSSSLGTQTYICNVNHKPSNTKVDKKVEPKSCDKTHTCPPCPAPEYYWGPSVFLFPPKPKDTLMISRTPEVTCVVVDVSDEEPEVKFNWYVDGVEVHNAKTKPREEQYNATYRVVSVLTVLHQDWLNGKEYKCKVSNKALPAPIEKTISKAKGQPREPQVCTLPPSRDELTKNQVSLWCLVKGFYPSDIAVEWESNGQPENNYKTTPPVLDSDGSFFLYSKLTVDKSRWQQGNVFSCSVMHEALHNHYTQKSLSLSP
heavy 2: QDQLVQSGAEVKKPGASVKVSCKASGFNIKDTYIQWVRQAPGQGLEWMGRIDPLRKQTKYREKFEGRVTITADTSTNTAYMELSSLRSEDTAVYYCVRSGREFDYWGQGTLVTVSSASTKGPSVFPLAPSSKSTSGGTAALGCLVKDYFPEPVTVSWNSGALTSGVHTFPAVLQSSGLYSLSSVVTVPSSSLGTQTYICNVNHKPSNTKVDKKVEPKSCDKTHTCPPCPAPELLGGPSVFLFPPKPKDTLMISRTPEVTCVVVDVSHEEPEVKFNWYVDGVEVHNAKTKPREEQYNSTYRVVSVLTVLHQDWLNGKEYKCKVSNDALPMPIEETISKAKGQPREPQVYTLPPSRCELTKNQVSLSCAVKGFYPSDIAVEWESNGQPENNYKTTPPVLDSDGSFFLVSKLTVDKSRWQQGNVFSCSVMHEALHNHYTQKSLSLSP
light: DIQMTQSPSSLSASVGDRVTITCRASQDIHKYIAWYQQKPGQAPRLLIQYTSTLQPGVPSRFSGSGSGTDYTFTISSLQPEDIATYYCLQYEQLRTFGGGTKVEIKRTVAAPSVFIFPPSDEQLKSGTASVVCLLNNFYPREAKVQWKVDNALQSGNSQESVTEQDSKDSTYSLSSTLTLSKADYEKHKVYACEVTHQGLSSPVTKSFNRGEC
notes: Heterodimerized anti-EREG IgG1: D270E introduced into both H chains of H240-Kn061/H240-Hl071/L73-k0
For the molecule B2, the Kd is 0.001 µM in [7]; 0.0001 µM in assay [8]; 0.0026 µM in [9]; 5.7 µM in assay [10]; 0.13 µM in assay [11]; 0.71 µM in [12]. Further, the dissociation constant Kd in assay [13] came out at 0.001 µM; in [14], 0.0001 µM; in assay [15], 0.0026 µM; in assay [16], 5.7 µM; in assay [17], 0.13 µM; in assay [18], 0.71 µM.

Source of the values: patent publication US20180155451A1 (published 2018).
